US20080207488A1, “Method for Detecting Peptides Comprising a Cross-B Structure” (priority 2005, published 2008)

Tests used:
[1] = Thioflavin T fluorescence; assay type: physicochemical
Description: Fluorescence of ThT-protein/peptide adducts was measured as follows. […] Fluorescence was measured at 485 nm upon excitation at 435 nm. Background signals from buffer, buffer with ThT and protein/peptide solution without ThT were subtracted from corresponding measurements with protein solution incubated with ThT. […] Fluorescence was measured in triplicate on a Hitachi F-4500 fluorescence spectrophotometer (Ltd., Tokyo, Japan).
(§1) Formulated protein therapeutics were obtained from the local hospital pharmacy and were used as supplied by the manufacturers. […] Lyophilized therapeutics were dissolved according to the manufacturers recommendations. […] Other protein therapeutics were only kept at 4° C., and assayed for the presence of cross-β structure conformation at shown time points. Enhancement in fluorescence of ThT and Congo red was measured with all formulated protein therapeutics. For this purpose, proteins were diluted to the indicated concentrations. […] Zinc-insulin was diluted tenfold in the activation assay, GH was diluted to a final concentration of 500 μg ml^−1. Activation of factor XII and prekallikrein by the therapeutics was tested in the chromogenic factor XII assay (see above). […] After coating, plates were blocked with Blocking Reagent (Roche Diagnostics, Almere, The Netherlands).
To prepare structurally altered ovalbumin (OVA) with amyloid cross-β structure conformation, purified OVA (Sigma, A-7641, lot 071k7094) was heated to 85° C. One mg ml^−1 OVA in 67 mM NaPi buffer pH 7.0, 100 mM NaCl, was heated for two cycles in PCR cups in a PTC-200 thermal cycler (MJ Research, Inc., Waltham, Mass., USA). In each cycle, OVA was heated from 30 to 85° C. at a rate of 5° C./min. Native OVA (nOVA) and heat-denatured OVA (dOVA) were tested in the ThT fluorescence assay and in the Plg-activation assay. In the fluorescence assay and in the Plg-activation assay, 25 and 100 μg ml^−1 nOVA and dOVA were tested, respectively. TEM images of nOVA and dOVA were taken to check for the presence of large aggregates. […] MSA (#126674, Calbiochem) was dissolved in 8 M urea, 100 mM Tris-HCl pH 8.2, at 10 mg ml^−1 final concentration. Dithiothreitol (DTT) was added to a final concentration of 10 mM. Air was replaced by N2 and the solution was incubated for 2 h at room temperature. Then, the solution was transferred to ice and iodoacetamide was added from a 1 M stock to a final concentration of 20 mM. […] Alkyl-MSA was dialyzed against H2O before use. […] In the ThT-fluorescence assay 25 μg ml^−1 nMSA and alkyl-MSA were tested, and in the Plg-activation assay 100 μg ml^−1 was tested. The presence of aggregates or fibrils was analyzed using TEM. […]
Protein therapeutics were obtained from the local hospital pharmacy and analyzed within the expiry limits as stated by the manufacturers.

tPA = target: T1, tPA (Homo sapiens, UniProt P00750); test: Plasminogen-activation assay (tPA-mediated Plg to Pls, S-2251); assay type: biochemical
T1 construct: purchased Boehringer-Ingelheim (Actilyse, Alteplase)
Description: Plasmin (Pls) activity was assayed as described^7. Peptides and proteins that were tested for their stimulatory ability were regularly used at 100 μg ml^−1. […] Chromogenic substrate S-2251 (Chromogenix, Instrumentation Laboratory SpA, Milano, Italy) was used to measure Pls activity. Conversion of zymogen factor XII (#233490, Calbiochem, EMD Biosciences, Inc., San Diego, Calif.) to proteolytically active factor XII (factor XIIa) was assayed by measurement of the conversion of chromogenic substrate Chromozym-PK (Roche Diagnostics, Almere, The Netherlands) by kallikrein. Chromozym-PK was used at a concentration of 0.3 mM. Factor XII, human plasma prekallikrein (#529583, Calbiochem) and human plasma cofactor high-molecular weight kininogen (#422686, Calbiochem) were used at concentrations of 1 μg ml^−1. […] Assays were performed using microtiter plates (Costar, Cambridge, Mass., USA). Peptides and proteins were tested for their ability to activate factor XII. 150 μg ml^−1 kaolin, an established activator of factor XII was used as positive control and solvent (H2O) as negative control. The conversion of Chromozym-PK was recorded kinetically at 37° C. for at least 60 minutes. Assays were done in duplicate. […] Alternatively, chromogenic substrate S-2222 (Chromogenix) was used to follow the activity of factor XII itself. With S-2222, activation of factor XII in plasma was measured, using 60% v/v plasma, diluted with substrate and H2O with or without potential cofactor. Furthermore, auto-activation of factor XII was measured by incubating 53 μg ml^−1 purified factor XII in 50 mM Tris-HCl buffer pH 7.5 with 1 mM EDTA and 0.001% v/v Triton-X100, with S-2222 and H2O with or without potential cofactor.
as §1
Purification of β2-glycoprotein I (β2GPI) was performed according to established methods^11,12. Recombinant human β2GPI was made using insect cells and purified as described^11. Plasma derived β2GPI as used in a factor XII ELISA, the chromogenic Plg-activation assay and in the anti-phospholipid syndrome antibody ELISA (see below), was purified from fresh human plasma as described^12.
To prepare structurally altered ovalbumin (OVA) with amyloid cross-β structure conformation, purified OVA (Sigma, A-7641, lot 071k7094) was heated to 85° C. One mg ml^−1 OVA in 67 mM NaPi buffer pH 7.0, 100 mM NaCl, was heated for two cycles in PCR cups in a PTC-200 thermal cycler (MJ Research, Inc., Waltham, Mass., USA). In each cycle, OVA was heated from 30 to 85° C. at a rate of 5° C./min. Native OVA (nOVA) and heat-denatured OVA (dOVA) were tested in the ThT fluorescence assay and in the Plg-activation assay. In the fluorescence assay and in the Plg-activation assay, 25 and 100 μg ml^−1 nOVA and dOVA were tested, respectively. TEM images of nOVA and dOVA were taken to check for the presence of large aggregates. […] MSA (#126674, Calbiochem) was dissolved in 8 M urea, 100 mM Tris-HCl pH 8.2, at 10 mg ml^−1 final concentration.

[2] = target: T2, human fibronectin finger 4,5 (Fn F4,5) fragment (Homo sapiens, UniProt P02751); test: ELISA, binding of fibronectin F4,5 to coated (mis)folded proteins; conditions: coated protein; for affinity of fibronectin F4,5 (detection anti-FLAG HRP): FIG. 7D-H
T2 construct: human fibronectin finger 4,5 (Fn F4,5) fragment; made in house; host or cells: HEK293E cells, transient transfection, protein purified from the medium
Description: The plates were blocked using Blocking reagent (Roche 1112589). A dilution series of the protein of interest was applied to the coated proteins and wells were subsequently washed using TBS-T (50 mM Tris pH 7.3, 150 mM NaCl and 0.1% Tween20). Bound protein is detected by the FLAG-tag using 1:3000 anti-FLAG-HRP (Sigma A-8592) in PBS-T, or by 1:1000 Ni-NTA-HRP (Qiagen 34530) in PBS-T. The HRP reaction Is performed using the TMB substrate (Biosource 4501103 or Tebu Bio 101TMB100-500), stopped using 10% H2SO4 and absorbance was measured at 450 nm.

T1 sequence (P00750 36-562): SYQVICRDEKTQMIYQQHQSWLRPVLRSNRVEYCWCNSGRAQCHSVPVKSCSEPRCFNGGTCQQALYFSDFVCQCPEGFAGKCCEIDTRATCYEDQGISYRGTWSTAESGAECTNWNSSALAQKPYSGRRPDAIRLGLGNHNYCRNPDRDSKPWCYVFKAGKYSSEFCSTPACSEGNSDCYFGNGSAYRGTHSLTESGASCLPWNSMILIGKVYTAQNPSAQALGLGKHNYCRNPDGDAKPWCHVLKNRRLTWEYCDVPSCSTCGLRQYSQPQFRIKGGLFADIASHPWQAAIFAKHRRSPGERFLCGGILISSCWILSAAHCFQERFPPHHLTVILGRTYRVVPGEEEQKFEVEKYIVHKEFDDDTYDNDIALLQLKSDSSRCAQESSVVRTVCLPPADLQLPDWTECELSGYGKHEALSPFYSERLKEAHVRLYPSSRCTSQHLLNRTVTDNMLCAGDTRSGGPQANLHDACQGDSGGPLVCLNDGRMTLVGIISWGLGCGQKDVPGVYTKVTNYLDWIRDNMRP
T2 sequence (P02751 182-276 limits assumed): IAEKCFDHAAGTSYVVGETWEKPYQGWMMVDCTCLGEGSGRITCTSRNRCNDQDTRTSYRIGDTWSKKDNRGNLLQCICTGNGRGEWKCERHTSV

| Substance | ThT fluorescence enhancement ([1]; after storage at 65° C.) | Fluorescence (a.u. +/− SD) ThT ([1]; marketed biopharmaceutical within expiry limits, five μL tested) | enhancement of ThT fluorescence ([1]; therapeutics stored at 4° C.) | Pls activity (tPA activation) (tPA; after storage at 65° C.) | tPA activation by protein therapeutics (tPA; stored at 4° C., GH 500 μg ml^−1, zinc-insulin diluted tenfold) | binding of fibronectin F4-5 (detection Ni-NTA-HRP) ([2]; FIG. 7A) | affinity of fibronectin F4,5 (detection anti-FLAG HRP) [2] | ThT fluorescence after incubation with kaolin ([1]; compared to buffer) | activation of tPA and Plg by component alone (tPA; FIG. 2G, without contacting) |
| --- | --- | --- | --- | --- | --- | --- | --- | --- | --- |
| Abciximab: abciximab, an inhibitor of blood platelet aggregation (ReoPro, Centocor) | enhanced ThT fluorescence | 8 +/− 8 a.u. | do not have ThT fluorescence enhancing or tPA activating properties | induced Pls activity | do not have ThT fluorescence enhancing or tPA activating properties | – | – | – | – |
| albumin-AGE: advanced glycation end-product modified bovine serum albumin | – | – | – | – | – | high affinity binding | High affinities | – | – |
| lysozyme: chicken egg-white lysozyme | – | – | – | – | – | – | high affinity | only in a small increase in ThT fluorescence | do not activate tPA and Plg |
